The source of these data is paper PMC5261807 (2017).

Experiment [1] addresses T1, Bdf1 bromodomain 1 (GST-tagged, WT) (Saccharomyces cerevisiae (strain ATCC …, UniProt P35817)).
T1 chain: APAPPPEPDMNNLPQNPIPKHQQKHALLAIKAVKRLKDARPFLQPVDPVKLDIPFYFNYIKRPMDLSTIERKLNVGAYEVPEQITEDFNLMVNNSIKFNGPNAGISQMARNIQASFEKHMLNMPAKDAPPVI
The experiment in a line: histone peptide array probed with recombinant GST-bromodomain, signal normalised to myc peptide control.

Experiment [2] deals with T2, Bdf1 bromodomain 2 (GST-tagged, WT) (Saccharomyces cerevisiae (strain ATCC …, UniProt P35817)).
T2 chain: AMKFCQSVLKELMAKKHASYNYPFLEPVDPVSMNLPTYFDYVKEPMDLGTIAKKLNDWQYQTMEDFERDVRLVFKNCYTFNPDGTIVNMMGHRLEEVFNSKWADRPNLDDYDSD
The description is as above.

Non-standard residues stand in square brackets, D forms with d. No end group written: not given here. Arg(Me2a) = CN(C)C(=N)NCCC[C@H](N)C(=O)O; Lys(Me3) = C[N+](C)(C)CCCC[C@H](N)C(=O)O; Arg(Me2s) = CN=C(NC)NCCC[C@H](N)C(=O)O; pT = C[C@@H](OP(=O)(O)O)[C@H](N)C(=O)O; Me2a = asymmetric dimethyl (on Arg); Lys(Me2) = CN(C)CCCC[C@H](N)C(=O)O; Me2s = symmetric dimethyl (on Arg); pS = N[C@@H](COP(=O)(O)O)C(=O)O; Lys(Me) = CNCCCC[C@H](N)C(=O)O; Me3 = trimethyl (on Lys)

A[Arg(Me2a)]TK(Ac)QTA[Arg(Me2a)][Lys(Me)]STGGKAPRKQ: the binding score in experiment [1] amounted to 0.00897; in experiment [2] it was 0.

With ARTKQTARKSTGGKAPRKQ (A Rme2s T Kme3 Q T A Rme2a Kme3 S T G G K A P R K Q), the binding score in experiment [1] turned out to be 0.00681; in experiment [2], 0.00108.

On to ARTKQTARKSTGGKAPRKQ (A R T K Q T A Rme2s Kac pS T G G K A P R K Q), for which the binding score in experiment [1] is 0.00484; in experiment [2], 0.00403.

For the molecule ARTKQTARKSTGGKAPRKQ (A R T Kme1 Q T A Rme2a Kme3 S T G G K A P R K Q), the binding score amounted to 0.00179 in experiment [1] and 0 in experiment [2].

For PRKQLATKAAR[Lys(Me2)][pS]APATGG, the binding score in experiment [1] and in experiment [2] was 0 throughout.

Turning to ARTKQTARKSTGGKAPRKQ (A Rme2a T Kme3 Q T A Rme2s Kac S T G G K A P R K Q), the binding score in experiment [1] was 0.0181; in experiment [2] it was 0.0261.

On to ARTK(Me3)QTAR(Me2s)K(Me)STGGKAPRKQ, for which the binding score in experiment [1] and in experiment [2] was 0 each time.

Consider A[Arg(Me2s)]TK(Ac)QTA[Arg(Me2a)][Lys(Me2)]STGGKAPRKQ, for which the values for the binding score in experiment [1] and in experiment [2] were 0.00197 and 0.00698, respectively.

As for SGRGKGGKGLGKGGAKRHR (S G R G K G G Kac G L G Kac G G A Kac R H R), the binding score amounted to 0.484 in experiment [1] and 0.448 in experiment [2].

For ARTKQTARKSTGGKAPRKQ (A Rme2s T Kme1 Q T A Rme2s Kme1 S T G G K A P R K Q), the values for the binding score in experiment [1] and in experiment [2] were 0.0134 and 0.00443, respectively.

As to ARTKQTARKSTGGKAPRKQ (A Rme2a T Kme1 Q T A Rme2s Kac S T G G K A P R K Q), the binding score in experiment [1] turned out to be 0.00717; in experiment [2], 0.0204.

As for PRKQLATKAA[Arg(Me2a)][Lys(Me2)][pS]APATGG, the binding score in experiment [1] and in experiment [2] was 0 in each case.

As to ARTKQTARKSTGGKAPRKQ (A Rme2a T Kme3 Q T A Rme2a Kac S T G G K A P R K Q), the binding score in experiment [1] turned out to be 0.0145; in experiment [2], 0.

As for SGRGK(Ac)QGGKARAKAKSRSS, the binding score in experiment [1] was found to be 0; in experiment [2], 0.0459.

Consider ARTKQTARKSTGGKAPRKQ (A Rme2s T Kme1 Q T A Rme2a Kme2 S T G G K A P R K Q), for which the binding score in experiment [1] was found to be 0.00502; in experiment [2] it was 0.

As for ARTKQTARKSTGGKAPRKQ (A Rme2s T Kme2 Q T A Rme2s Kac S T G G K A P R K Q), the results for the binding score in experiment [1] and in experiment [2] were 0.0179 and 0.0314, respectively.

Regarding A[Arg(Me2s)]TK(Ac)QTA[Arg(Me2a)][Lys(Me3)]STGGKAPRKQ, the binding score in experiment [1] was 0.0145; in experiment [2], 0.00836.

Turning to ARTKQTARKSTGGKAPRKQ (A Rme2s T Kme3 Q T A Rme2s Kme2 S T G G K A P R K Q), the binding score amounted to 0.000538 in experiment [1] and 0 in experiment [2].

For SGRGKGGKGLGKGGAKRHR (pS G Rme2a G K G G K G L G K G G A K R H R), the binding score in experiment [1] and in experiment [2] was 0 in each case.

On to PRKQLATKAA[Arg(Me2a)][Lys(Me)][pS]APATGG, for which the binding score in experiment [1] and in experiment [2] was 0 throughout.

With AR(Me2a)TK(Me)QTAR(Me2s)K(Me)STGGKAPRKQ, the binding score stood at 0.0102 in experiment [1] and 0.00187 in experiment [2].

For ARTKQTA[Arg(Me2s)]K(Ac)S[pT]GGKAPRKQ, the binding score in experiment [1] stood at 0.0118; in experiment [2] it was 0.00679.

Take KKKKKRRRRRXKKKKRK (K Kme1 Kme2 Kme3 Kac R Rme2s R Rme2a R Cit K Kme1 Kac Kme3 R K) [background 01]: the binding score in experiment [1] and in experiment [2] was 0 each time.

As to PRKQLATKAA[Arg(Me2s)][Lys(Me)]SAPATGG, the binding score in experiment [1] and in experiment [2] was 0 in each case.

On to ARTKQTARKSTGGKAPRKQ (A Rme2a T Kme2 Q T A Rme2s Kme2 S T G G K A P R K Q), for which the binding score in experiment [1] and in experiment [2] was 0 each time.

Turning to PDPAK(Ac)SAPAPKK(Ac)G[pS]KKAVT [H2B 1-19], the binding score in experiment [1] amounted to 0.00663; in experiment [2] it was 0.

ARTKQTARKSTGGKAPRKQ (A Rme2a T Kme3 Q T A Rme2a K S T G G K A P R K Q): the values for the binding score in experiment [1] and in experiment [2] were 0.0102 and 0.00541, respectively.

Regarding ARTKQTARKSTGGKAPRKQ (A R T Kme3 Q T A Rme2a Kac S T G G K A P R K Q), the values for the binding score in experiment [1] and in experiment [2] were 0.0142 and 0.0127, respectively.

For the molecule A[Arg(Me2s)]TKQTARKSTGGKAPRKQ, the binding score in experiment [1] was found to be 0.0111; in experiment [2], 0.

In the case of ARTKQTARKSTGGKAPRKQ (A R T K Q T A R K S pT G G K A P R K Q), the binding score in experiment [1] and in experiment [2] was 0 throughout.

As to ART[Lys(Me)]QTA[Arg(Me2s)][Lys(Me)]STGGKAPRKQ, the results for the binding score in experiment [1] and in experiment [2] were 0.0199 and 0, respectively.

As for A[Arg(Me2a)]T[Lys(Me3)]QTA[Arg(Me2a)][Lys(Me3)]STGGKAPRKQ, the figures for the binding score in experiment [1] and in experiment [2] were 0 and 0.00384, respectively.

Turning to ARTKQTARKSTGGKAPRKQ (A R T K Q T A R Kme1 S T G G K A P R K Q), the binding score in experiment [1] stood at 0; in experiment [2], 0.00482.

ARTKQTARKSTGGKAPRKQ (A Rme2a pT Kme3 Q T A R K S T G G K A P R K Q): the binding score was 0.00789 in experiment [1] and 0.000885 in experiment [2].

Take PRKQLATKAA[Arg(Me2s)]K(Ac)[pS]APATGG: the binding score worked out at 0.0061 in experiment [1] and 0 in experiment [2].

For the molecule A[Arg(Me2s)][pT][Lys(Me)]QTARKSTGGKAPRKQ, the binding score came to 0.00323 in experiment [1] and 0.00344 in experiment [2].

Regarding RKSAPATGGVKKPHRYRPG (R K S A P A T G G V Kac K P H R Y R P G) [H3 26-45], the binding score in experiment [1] was 0.0463; in experiment [2] it was 0.0292.

SGRGKGGKGLGKGGAKRHR (pS G Rme2s G K G G K G L G K G G A K R H R): the binding score in experiment [1] and in experiment [2] was 0 in each case.

As for [pS]GRGKQGGK(Ac)ARAKAKSRSS, the binding score was 0 in experiment [1] and 0.00817 in experiment [2].

SGRGKGGKGLGKGGAKRHR (pS G Rme2a G Kac G G K G L G K G G A K R H R): the values for the binding score in experiment [1] and in experiment [2] were 0.00753 and 0.0674, respectively.

Regarding SGRGKGGKGLGKGGAKRHR (S G Rme2s G Kac G G K G L G K G G A K R H R), the results for the binding score in experiment [1] and in experiment [2] were 0 and 0.0652, respectively.

As for SGRGKGGKGLGKGGAKRHR (pS G Rme2s G Kac G G K G L G K G G A K R H R), the binding score in experiment [1] came to 0.00968; in experiment [2] it was 0.107.

Take SGRGKGGKGLGKGGAKRHR (S G R G Kac G G Kac G L G K G G A K R H R): the binding score in experiment [1] was 0.146; in experiment [2], 0.33.

For the molecule PRKQLATKAAR[Lys(Me2)]SAPATGG, the figures for the binding score in experiment [1] and in experiment [2] were 0.01 and 0, respectively.
